Results on one substance are retold here after patent US20230301998.

Residue numbers refer to the chain shown, from its start.

One series relates to T1, V5-tagged IFI204 R12A.
T1 sequence: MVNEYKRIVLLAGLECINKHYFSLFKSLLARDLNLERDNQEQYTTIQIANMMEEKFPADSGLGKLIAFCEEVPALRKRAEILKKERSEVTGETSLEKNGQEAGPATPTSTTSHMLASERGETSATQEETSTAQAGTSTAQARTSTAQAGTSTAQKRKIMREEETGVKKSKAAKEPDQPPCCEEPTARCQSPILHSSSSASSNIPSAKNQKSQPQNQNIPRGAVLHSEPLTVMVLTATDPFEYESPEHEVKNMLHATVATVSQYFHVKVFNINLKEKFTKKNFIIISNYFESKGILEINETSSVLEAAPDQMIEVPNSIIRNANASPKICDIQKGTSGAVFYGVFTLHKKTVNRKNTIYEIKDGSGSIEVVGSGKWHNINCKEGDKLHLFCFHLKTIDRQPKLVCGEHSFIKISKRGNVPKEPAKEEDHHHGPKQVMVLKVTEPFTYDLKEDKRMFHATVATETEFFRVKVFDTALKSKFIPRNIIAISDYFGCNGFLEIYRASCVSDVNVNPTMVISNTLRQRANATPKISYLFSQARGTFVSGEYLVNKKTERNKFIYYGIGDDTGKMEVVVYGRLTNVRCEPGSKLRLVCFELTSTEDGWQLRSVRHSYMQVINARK

Another series deals with T2, V5-tagged IFI204 R538A.
T2 sequence: T1 sequence with A12R, R538A

Series [1] relates to T3, V5-tagged IFI204 RR12/538AA.
T3 sequence: T1 sequence with R538A

A further series concerns T4, V5-tagged IFI204 WT.
T4 sequence: T1 sequence with A12R

With recombinant active PRMT5 plus WDR77, the “in vitro methylation (3H-SAM, autoradiography)” value in the series with V5-tagged IFI204 R12A is reported as “Immunopurified WT IFI204, but not a mutant form lacking either Arg12, Arg538 or both, was methylated in vitro by recombinant PRMT5”; in the series with V5-tagged IFI204 R538A, “Immunopurified WT IFI204, but not a mutant form lacking either Arg12, Arg538 or both, was methylated in vitro by recombinant PRMT5”; in series [1], “Immunopurified WT IFI204, but not a mutant form lacking either Arg12, Arg538 or both, was methylated in vitro by recombinant PRMT5”; in the series with V5-tagged IFI204 WT it was “IFI204 WT protein was methylated by PRMT5 /WDR77”.
